Experiments:
[1] = biological target: beluga whale coronavirus (BwCoV) spike (S) glycoprotein ectodomain, 2P, GCN4 trimerization motif, Strep-tag (beluga whale coronavirus (BwCoV)); test: cryo-EM structure
[2] = biological target: bottlenose dolphin coronavirus (BdCoV) spike (S) glycoprotein ectodomain (23-1370), 2P, GCN4 trimeri (bottlenose dolphin coronavirus (BdCoV)); test: cryo-EM structure

| Substance | stoichiometry N [1] | stoichiometry N [2] |
| --- | --- | --- |
| beluga whale coronavirus (BwCoV) spike (S) glycoprotein ectodomain, 2P, GCN4 trimerization motif, Strep-tag (domain or fragment) | 3 |  |
| bottlenose dolphin coronavirus (BdCoV) spike (S) glycoprotein ectodomain (23-1370), 2P, GCN4 trimeri (domain or fragment) |  | 3 |
